Earlier results, collected in article PMC9405667.

Assays:
[1] = molecular target: chemerin receptor 1 (chem1) (Homo sapiens) (UniProt Q99788)
[2] = molecular target: chemerin receptor 2 (chem2) (Homo sapiens) (UniProt P46091)
Sequence of chemerin receptor 2 (chem2) (Homo sapiens) (P46091 whole entry): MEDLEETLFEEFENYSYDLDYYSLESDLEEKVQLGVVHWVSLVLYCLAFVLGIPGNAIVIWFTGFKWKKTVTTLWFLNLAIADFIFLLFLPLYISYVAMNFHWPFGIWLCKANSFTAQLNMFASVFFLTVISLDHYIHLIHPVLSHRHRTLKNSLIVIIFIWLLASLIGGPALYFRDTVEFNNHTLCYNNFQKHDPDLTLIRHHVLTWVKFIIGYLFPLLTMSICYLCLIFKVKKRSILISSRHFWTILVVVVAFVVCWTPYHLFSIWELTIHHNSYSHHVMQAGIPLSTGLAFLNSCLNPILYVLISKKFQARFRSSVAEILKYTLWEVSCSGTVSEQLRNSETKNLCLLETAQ

Sequence of chemerin (chem157S) (Q99969 21-157): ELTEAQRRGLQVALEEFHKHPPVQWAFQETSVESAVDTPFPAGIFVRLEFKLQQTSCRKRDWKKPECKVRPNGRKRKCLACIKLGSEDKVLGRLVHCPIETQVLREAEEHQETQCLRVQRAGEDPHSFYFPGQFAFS
Sequence of chemerin receptor 1 (chem1) (Homo sapiens) (Q99788 whole entry): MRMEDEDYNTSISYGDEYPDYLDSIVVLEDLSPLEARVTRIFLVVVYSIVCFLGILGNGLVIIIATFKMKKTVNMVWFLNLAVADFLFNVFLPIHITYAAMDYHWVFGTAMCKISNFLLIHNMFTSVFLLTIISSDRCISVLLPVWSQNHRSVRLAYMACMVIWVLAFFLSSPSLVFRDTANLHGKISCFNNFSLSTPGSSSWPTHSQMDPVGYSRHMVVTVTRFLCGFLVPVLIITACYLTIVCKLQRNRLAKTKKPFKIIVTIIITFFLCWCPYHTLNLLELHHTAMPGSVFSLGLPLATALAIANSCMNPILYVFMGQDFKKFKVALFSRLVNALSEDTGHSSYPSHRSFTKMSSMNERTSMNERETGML

Kd [1]: 0.88 nM | Kd [2]: 0.21 nM
Substance: chemerin (chem157S) (from UniProt Q99969)
